Data taken from patent US20230088277A1 (SHANGHAI SYNVIDA BIOTECHNOLOGY, published 2023).
Where a chain is given by its changes, count along the chain named. Each block holds one binder with its values, some of them ahead of it.

What was measured:
[1] = molecular target: T1, 6×His tag human Pear1 extracellular segment (Leu-21-Ser; 754) (human, UniProt Q5VY43 21-754); assay: SPR (Biacore); antibody as ligand, Pear1 extracellular segment
T1 construct: range 21-754; The ELISA and the Biacore test only say 'human Pear1 ECD protein' / 'extracellular segment'; also called human Pear1 ECD protein; human Pear1ECD protein; not shown: 6×His tag
T1 sequence (looked up): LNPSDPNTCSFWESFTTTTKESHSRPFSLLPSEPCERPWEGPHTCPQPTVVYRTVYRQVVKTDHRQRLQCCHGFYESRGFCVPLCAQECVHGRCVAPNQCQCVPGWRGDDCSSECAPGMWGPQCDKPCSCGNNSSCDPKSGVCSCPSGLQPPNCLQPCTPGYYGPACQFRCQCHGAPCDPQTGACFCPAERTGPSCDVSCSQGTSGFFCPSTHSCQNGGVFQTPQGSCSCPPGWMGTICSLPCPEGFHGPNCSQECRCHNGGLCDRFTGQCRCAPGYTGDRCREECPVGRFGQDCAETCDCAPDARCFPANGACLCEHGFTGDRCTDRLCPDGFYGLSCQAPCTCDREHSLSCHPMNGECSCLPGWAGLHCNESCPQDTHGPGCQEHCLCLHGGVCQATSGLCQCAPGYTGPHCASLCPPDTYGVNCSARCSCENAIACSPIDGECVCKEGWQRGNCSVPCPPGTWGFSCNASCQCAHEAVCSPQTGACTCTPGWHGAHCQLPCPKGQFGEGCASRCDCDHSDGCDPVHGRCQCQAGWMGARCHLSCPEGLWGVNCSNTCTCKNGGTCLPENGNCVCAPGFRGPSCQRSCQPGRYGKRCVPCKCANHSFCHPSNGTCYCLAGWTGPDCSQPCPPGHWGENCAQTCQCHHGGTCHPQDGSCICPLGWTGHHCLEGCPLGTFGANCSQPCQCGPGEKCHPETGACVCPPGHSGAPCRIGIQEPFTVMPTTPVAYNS

[2] = molecular target: T1, 6×His tag human Pear1 extracellular …; assay: ELISA, plate coated with human Pear1 ECD
Experimental: FIG. 6 The comparison of the affinities of the anti-human Pear1 antibodies to human Pear1. The ELISA plate was coated with human Pear1 ECD proteins and the reactions were conducted between antibodies at different concentrations (2000 ng/mL, 1000 ng/mL, 500 ng/mL, 250 ng/mL, 125 ng/mL, 62.5 ng/mL, 31.25 ng/mL, 15.625 ng/mL, 7.8125 ng/mL, 3.90625 ng/mL, 1.953125 ng/mL, 0.9765625 ng/mL) and the human Pear1 ECD proteins. OD value was measured to obtain the EC 50 value of the antigen-antibody combination
8.2.1 Comparison of antigen binding ability of these antibodies.

B1: hLF109 (antibody, V domains shown)
VH: QVQLVQSGAEVKKPGASVKVSCKASGYTFTGYPMNWVRQAPGQNLEWMGVINPYNGGTSYNQKFKGRVTLTVDKSASTAYMELSSLRSEDTAVYYCARGGVRPFAYWGQGTLVTVSS
VL: DIQMTQSPSSLSASVGDRVTITCKASEDIYNRLAWYQQKPGKAPKLLISGATSLETGVPSRFSGSGSGNDFTLTISSLQPEDFATYYCQQYWSTPTFGQGTKLEIK
notes: Humanized antibody
Kd [1]: 6.14 nM | koff [1]: 0.000249 s⁻¹ | kon [1]: 40500 M⁻¹ s⁻¹ | t1/2 [1]: 46.4 min

B8: hLF101 (antibody, V domains shown)
VH: B1 VH with V72R
VL: B1 VL
notes: Humanized antibody (CDR grafting with back mutations)
Kd [1]: 7.67 nM | koff [1]: 0.000393 s⁻¹ | kon [1]: 51200 M⁻¹ s⁻¹ | t1/2 [1]: 29.4 min

B9: hLF103 (antibody, V domains shown)
VH: B1 VH with V72R
VL: B1 VL with F71Y
notes: Humanized antibody
Kd [1]: 19 nM | koff [1]: 0.000532 s⁻¹ | kon [1]: 28000 M⁻¹ s⁻¹ | t1/2 [1]: 21.7 min

B13: hLF102 (antibody, V domains shown)
VH: B1 VH with V72R
VL: B1 VL with K42N
notes: Humanized antibody
Kd [1]: 7.87 nM | koff [1]: 0.000395 s⁻¹ | kon [1]: 50200 M⁻¹ s⁻¹ | t1/2 [1]: 29.2 min

B17: LF2 (antibody, V domains shown)
VH: EVQLQQSGPELVKPGASMKISCKASGYSFTGYPMNWVRQSHVKNLEWIGVINPYNGGTSYNQKFKGKATLTVDKSSSTAYIELLSLTSDDSAVYYCARGGVRPFAYWGQGTLVTVSA
VL: DIQMTQTSSSFSVSLGDRVTITCKASEDIYNRLAWYQQKPGNAPRLLISGATSLETGVPSRFSGSGSGNDYTLSITSLQTEDVATYYCQQYWSTPTFGAGTKLELQ
notes: Mouse monoclonal antibody from hybridoma
EC50 [2]: 0.0111 µg/mL

B18: LF16 (antibody, V domains shown)
VH: EVQLQQSGPELVKPGASMKISCKASGYAFTGYTMNWVKQSHGKNLDWIGVINGYNGGTSYNQKFKGKATLTVDKSSSTAYMELLSLTSEDSAIYYCARGGPTTGFVYWGQGTLVTVSA
VL: B17 VL with N69K, Q106K
notes: as for B17
EC50 [2]: 0.0547 µg/mL

B19: LF11 (antibody, V domains shown)
VH: B17 VH with R38K, S40T, V42G, V50L, I81M, D90E, A105D, Y106F
VL: DIVITQSPAIMSASPGEKVTMTCSARSSVSYMYWYQQKPGSSPRLLIYDTSKLASGVPVRFSGSGSGTSYSLTISRMEAEDAATYFCQQWSSYPPTFGGGTKLEIK
notes: as for B17
EC50 [2]: 0.00891 µg/mL

B20: LF2-hIgG4 (antibody, V domains shown)
VH: B17 VH
VL: B17 VL
notes: read from the name as the variable domains of LF2 on human IgG4 constant regions; also called LF2-hlgG 4
Kd [1]: 3.52 nM | koff [1]: 0.000187 s⁻¹ | kon [1]: 53100 M⁻¹ s⁻¹ | t1/2 [1]: 61.8 min

B21: LF7 (antibody, V domains shown)
VH: B17 VH with V42G, P53S, T58A, S77N, T78I, A79V, Y80H, I81M, D89E
VL: DIVMTQSQKFMSTSVGDRVSVTCKASQNVDTNVAWYQQKPGQSPKALIYSASYRYSGVPDRFTGSGSGTDFTLTISNVQSEDLAEYFCQQYDSYPYTFGGGTKLEIR
notes: as for B17
EC50 [2]: 0.0336 µg/mL

B22: LF3 (antibody, V domains shown)
VH: B17 VH with R38K, S40T, V42G, V50L, I81M, D90E, A105D, Y106F
VL: B17 VL
notes: as for B17
EC50 [2]: 0.00927 µg/mL

B23: LF15 (antibody, V domains shown)
VH: EVQLQQSGPELVKPGASMKISCKASGYSFTGYTMNWVKQSHGENLEWIGVINPYNGGTSYNQKFKGKATLTVDKSFSTAYMEILSLTSEDSAVYYCSRGGGNSWFAYWGQGTLVTVSA
VL: DIQMTQTSSYLSVSLGGRVTITCKASDHINNWLAWYQQKPGNAPRLLISGATSLETGVPSRFSGSGSGTDYSLTITSLQTEDVATYYCQQYWSIPTFGGGTRLEIK
notes: as for B17
EC50 [2]: 0.0807 µg/mL

More lines, now with the values ahead:

Kd [1]: 13.3 nM | koff [1]: 0.000506 s⁻¹ | kon [1]: 38000 M⁻¹ s⁻¹ | t1/2 [1]: 22.8 min
B2: hLF104 (antibody, V domains shown)
VH: B1 VH with V72R
VL: B1 VL with K42N, F71Y
notes: Humanized antibody

Kd [1]: 3.82 nM | koff [1]: 0.000176 s⁻¹ | kon [1]: 46200 M⁻¹ s⁻¹ | t1/2 [1]: 65.6 min
B3: hLF105 (antibody, V domains shown)
VH: B1 VH with Q43K, N44R, V68A, K74T
VL: B1 VL
notes: Humanized antibody

Kd [1]: 5.09 nM | koff [1]: 0.000221 s⁻¹ | kon [1]: 43400 M⁻¹ s⁻¹ | t1/2 [1]: 52.3 min
B4: hLF116 (antibody, V domains shown)
VH: B1 VH with Q43K, V68A
VL: B1 VL with K42N, F71Y
notes: Humanized antibody

Kd [1]: 5.31 nM | koff [1]: 0.000235 s⁻¹ | kon [1]: 44200 M⁻¹ s⁻¹ | t1/2 [1]: 49.2 min
B5: hLF115 (antibody, V domains shown)
VH: B1 VH with Q43K, V68A
VL: B1 VL with F71Y
notes: Humanized antibody

Kd [1]: 5.8 nM | koff [1]: 0.000233 s⁻¹ | kon [1]: 40100 M⁻¹ s⁻¹ | t1/2 [1]: 49.7 min
B6: hLF106 (antibody, V domains shown)
VH: B1 VH with Q43K, N44R, V68A, K74T
VL: B1 VL with K42N
notes: Humanized antibody

Kd [1]: 4.99 nM | koff [1]: 0.000237 s⁻¹ | kon [1]: 47500 M⁻¹ s⁻¹ | t1/2 [1]: 48.7 min
B7: hLF112 (antibody, V domains shown)
VH: B1 VH
VL: B1 VL with K42N, F71Y
notes: Humanized antibody

Kd [1]: 4.28 nM | koff [1]: 0.000201 s⁻¹ | kon [1]: 47000 M⁻¹ s⁻¹ | t1/2 [1]: 57.4 min
B10: hLF113 (antibody, V domains shown)
VH: B1 VH with Q43K, V68A
VL: B1 VL
notes: Humanized antibody

Kd [1]: 5.98 nM | koff [1]: 0.000307 s⁻¹ | kon [1]: 51300 M⁻¹ s⁻¹ | t1/2 [1]: 37.7 min
B11: hLF108 (antibody, V domains shown)
VH: B1 VH with Q43K, N44R, V68A, K74T
VL: B1 VL with K42N, F71Y
notes: Humanized antibody

Kd [1]: 5.09 nM | koff [1]: 0.000232 s⁻¹ | kon [1]: 45600 M⁻¹ s⁻¹ | t1/2 [1]: 49.8 min
B12: hLF114 (antibody, V domains shown)
VH: B1 VH with Q43K, V68A
VL: B1 VL with K42N
notes: Humanized antibody

Kd [1]: 6.74 nM | koff [1]: 0.000345 s⁻¹ | kon [1]: 51200 M⁻¹ s⁻¹ | t1/2 [1]: 33.5 min
B14: hLF107 (antibody, V domains shown)
VH: B1 VH with Q43K, N44R, V68A, K74T
VL: B1 VL with F71Y
notes: Humanized antibody

Kd [1]: 5.42 nM | koff [1]: 0.000236 s⁻¹ | kon [1]: 43500 M⁻¹ s⁻¹ | t1/2 [1]: 49 min
B15: hLF110 (antibody, V domains shown)
VH: B1 VH
VL: B1 VL with K42N
notes: Humanized antibody; also called hLFHO

Kd [1]: 6.87 nM | koff [1]: 0.000271 s⁻¹ | kon [1]: 39500 M⁻¹ s⁻¹ | t1/2 [1]: 42.6 min
B16: hLF111 (antibody, V domains shown)
VH: B1 VH
VL: B1 VL with F71Y
notes: Humanized antibody
